Experimental data: patent publication US20190352359A1

Biological target: HLA-A*24
Assay: UV peptide-exchange ELISA (anti-b2m); yield grade ++ = >20%

## TQFFIPYTI (modifications not checked) [COL10-002]
  peptide exchange yield: 20 to 50%
